Legend:
ARHGAP30, Q7Z6I6-2 [1] = target: ARHGAP30, Q7Z6I6-2
ARHGAP30, Q7Z6I6-2 [2] = target: ARHGAP30, Q7Z6I6-2; remark: listed apart in the source
rhg31_mouse Arhgap31 = rhg31_mouse Arhgap31 (UniProt A6X8Z5)
Sequence of rhg31_mouse Arhgap31 (A6X8Z5 whole entry): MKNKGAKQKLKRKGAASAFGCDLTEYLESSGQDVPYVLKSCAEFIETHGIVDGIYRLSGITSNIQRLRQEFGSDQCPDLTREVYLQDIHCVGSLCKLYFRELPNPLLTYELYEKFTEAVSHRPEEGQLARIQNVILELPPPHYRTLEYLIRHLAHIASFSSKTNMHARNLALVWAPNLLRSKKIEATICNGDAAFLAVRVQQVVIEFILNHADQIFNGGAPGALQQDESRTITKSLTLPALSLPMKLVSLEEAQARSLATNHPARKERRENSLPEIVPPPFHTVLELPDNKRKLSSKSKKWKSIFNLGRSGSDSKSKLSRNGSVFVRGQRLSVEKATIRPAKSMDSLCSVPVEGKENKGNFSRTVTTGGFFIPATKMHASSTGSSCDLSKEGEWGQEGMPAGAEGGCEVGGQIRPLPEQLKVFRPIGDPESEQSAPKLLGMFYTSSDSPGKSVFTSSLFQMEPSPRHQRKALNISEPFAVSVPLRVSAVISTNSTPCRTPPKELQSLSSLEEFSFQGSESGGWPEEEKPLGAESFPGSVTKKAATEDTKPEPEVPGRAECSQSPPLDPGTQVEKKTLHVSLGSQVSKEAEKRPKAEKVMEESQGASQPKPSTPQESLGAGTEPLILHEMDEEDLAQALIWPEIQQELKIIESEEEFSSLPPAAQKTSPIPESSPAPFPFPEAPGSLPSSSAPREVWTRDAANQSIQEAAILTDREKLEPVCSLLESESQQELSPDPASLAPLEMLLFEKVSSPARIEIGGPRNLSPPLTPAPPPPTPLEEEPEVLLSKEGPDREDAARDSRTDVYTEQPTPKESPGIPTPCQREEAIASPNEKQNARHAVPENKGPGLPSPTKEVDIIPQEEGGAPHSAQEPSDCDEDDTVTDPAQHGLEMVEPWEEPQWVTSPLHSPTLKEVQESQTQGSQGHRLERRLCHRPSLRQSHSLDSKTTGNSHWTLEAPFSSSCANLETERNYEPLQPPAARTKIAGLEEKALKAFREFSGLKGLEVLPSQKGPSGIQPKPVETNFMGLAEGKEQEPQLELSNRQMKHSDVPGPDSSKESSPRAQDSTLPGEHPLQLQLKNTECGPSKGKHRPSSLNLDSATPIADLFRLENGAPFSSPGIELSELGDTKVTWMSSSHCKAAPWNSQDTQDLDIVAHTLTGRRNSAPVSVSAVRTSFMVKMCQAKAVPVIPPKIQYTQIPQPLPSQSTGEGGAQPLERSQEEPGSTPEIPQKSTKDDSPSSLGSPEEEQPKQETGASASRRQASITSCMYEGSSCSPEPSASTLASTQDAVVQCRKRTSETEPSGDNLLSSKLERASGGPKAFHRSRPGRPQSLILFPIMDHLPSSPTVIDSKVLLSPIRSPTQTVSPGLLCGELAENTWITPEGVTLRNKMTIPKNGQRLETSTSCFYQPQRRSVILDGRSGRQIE

Sequence of ARHGAP30, Q7Z6I6-2 (Q7Z6I6 other isoform, or with tags, fused parts or gaps): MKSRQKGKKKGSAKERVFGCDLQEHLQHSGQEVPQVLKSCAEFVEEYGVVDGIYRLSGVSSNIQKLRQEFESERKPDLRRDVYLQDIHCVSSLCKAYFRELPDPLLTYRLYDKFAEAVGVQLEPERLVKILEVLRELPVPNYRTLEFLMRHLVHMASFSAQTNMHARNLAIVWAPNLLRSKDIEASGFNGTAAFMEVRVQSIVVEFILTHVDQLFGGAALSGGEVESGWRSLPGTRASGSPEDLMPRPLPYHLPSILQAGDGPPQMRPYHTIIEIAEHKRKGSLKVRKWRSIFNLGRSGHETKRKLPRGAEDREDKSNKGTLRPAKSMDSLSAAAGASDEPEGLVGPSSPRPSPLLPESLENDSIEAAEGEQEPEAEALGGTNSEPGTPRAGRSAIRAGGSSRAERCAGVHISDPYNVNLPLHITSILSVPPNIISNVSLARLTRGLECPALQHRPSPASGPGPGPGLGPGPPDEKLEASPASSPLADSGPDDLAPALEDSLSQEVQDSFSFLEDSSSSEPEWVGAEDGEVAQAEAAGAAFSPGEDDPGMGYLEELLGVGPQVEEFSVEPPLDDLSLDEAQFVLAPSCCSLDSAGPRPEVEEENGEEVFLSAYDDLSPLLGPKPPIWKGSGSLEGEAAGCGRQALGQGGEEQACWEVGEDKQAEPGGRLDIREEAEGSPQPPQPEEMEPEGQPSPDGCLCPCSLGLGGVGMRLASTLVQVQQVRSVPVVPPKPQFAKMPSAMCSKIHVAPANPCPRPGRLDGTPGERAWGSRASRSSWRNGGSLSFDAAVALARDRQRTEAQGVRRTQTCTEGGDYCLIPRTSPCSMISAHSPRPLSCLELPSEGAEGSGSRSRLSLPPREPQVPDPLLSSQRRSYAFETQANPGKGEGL
Sequence of Rho-related GTP-binding protein RhoU (Homo sapiens), Q7L0Q8 F86C (Q7L0Q8 whole entry F86C): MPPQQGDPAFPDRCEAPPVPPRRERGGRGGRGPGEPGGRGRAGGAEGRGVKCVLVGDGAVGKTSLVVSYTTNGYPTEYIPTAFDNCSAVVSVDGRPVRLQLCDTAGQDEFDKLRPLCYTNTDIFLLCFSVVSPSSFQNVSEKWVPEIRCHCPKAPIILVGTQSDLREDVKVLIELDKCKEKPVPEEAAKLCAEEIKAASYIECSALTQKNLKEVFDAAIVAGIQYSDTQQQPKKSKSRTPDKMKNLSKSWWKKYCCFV

| Substance | effect of a mutation on the interaction (ARHGAP30, Q7Z6I6-2 [1]) | effect of a mutation on the interaction (ARHGAP30, Q7Z6I6-2 [2]) | effect of a mutation on the interaction (rhg31_mouse Arhgap31) |
| --- | --- | --- | --- |
| Rho-related GTP-binding protein RhoU (Homo sapiens), Q7L0Q8 F83G | decreasing interaction strength | disrupting interaction strength |  |
| Rho-related GTP-binding protein RhoU (Homo sapiens), Q7L0Q8 F86C |  | with no effect |  |
| Rho-related GTP-binding protein RhoU (Homo sapiens), Q7L0Q8 P80G |  | with no effect |  |
| Rho-related GTP-binding protein RhoU (Homo sapiens), Q7L0Q8 Q107L |  | with no effect | with no effect |
| Rho-related GTP-binding protein RhoU (Homo sapiens), Q7L0Q8 T63N |  | with no effect | disrupting interaction strength |

From IntAct's records for PubMed 21565175
